Where a chain is given by its changes, count along the chain named. Names may count otherwise. Each block holds one molecule with its values, some of them ahead of it.
Tests used:
[1] = target: HER2-ECD (in house) (UniProt P04626); assay: SPR (BIAcore T200), Fab captured on anti-Fab chip, HER2-ECD as analyte, 25 C, 1:1 model
[2] = target: HER2-ECD (in house) (UniProt P04626); assay: SPR (refers to Table G3)
[3] = target: T1, IL-13 (in-house) (UniProt P35225 35-146, limits assumed); assay: SPR (BIAcore T200), Fab captured on anti-Fab chip, IL-13 as analyte, 25 C, 1:1 model
T1 construct: SPR analyte

[4] = target: T1, IL-13 (in-house); assay: SPR
[5] = target: T1, IL-13 (in-house); assay: SPR (BIAcore T200), Fab captured on anti-Fab chip, IL-13 as analyte; n.d. = binding was not detected
[6] = target: T2, MET-R Fc (R&D Systems, catalog number 8614-MT) (UniProt P08581 25-932); assay: SPR (BIAcore T200), Fab captured on anti-Fab chip, MET-R Fc as analyte, 25 C, 1:1 model
T2 construct: Bought reagent used as SPR analyte; not shown: Fc part of the bought fusion protein

[7] = target: T2, MET-R Fc (R&D Systems, catalog number …); assay: SPR (BIAcore T200), Fab captured on anti-Fab chip, MET-R Fc as analyte; n.d. = binding was not detected

Kd [1]: 36.5 nM
koff [1]: 0.00294 s⁻¹
kon [1]: 80000 M⁻¹ s⁻¹
fold change of KD against the unmodified parent [2]: 30 fold
Molecule: anti-HER2 Fab variant CDR H3 W95D

Kd [3]: 0.05 nM
koff [3]: 5e-05 s⁻¹
kon [3]: 1.17e+06 M⁻¹ s⁻¹
B1: Parental anti-IL-13 Fab (lebrikizumab) (Fab, V domains shown)
VH: EVTLRESGPALVKPTQTLTLTCTVSGFSLSAYSVNWIRQPPGKALEWLAMIWGDGKIVYNSALKSRLTISKDTSKNQVVLTMTNMDPVDTATYYCAGDGYYPYAMDNWGQGSLVTVSS
VL: DIVLTQSPDSLSVSLGERATINCRASKSVDSYGNSFMHWYQQKPGQPPKLLIYLASNLESGVPDRFSGSGSGTDFTLTISSLQAEDVAVYYCQQNNEDPRTFGGGTKVEIK
notes: Tested as Fab

Kd [3]: 1.8 nM
koff [3]: 0.00269 s⁻¹
kon [3]: 1.5e+06 M⁻¹ s⁻¹
B2: anti-IL-13 Fab variant CDR H3 P99A (Fab, name in Kabat numbering, V domains shown)
VH: B1 VH with P102A
VL: B1 VL
notes: Fab; variable domains only; Kabat numbering

fold loss in binding affinity against the parental anti-IL-13 Fab [4]: ~10 fold
Kd [3]: 0.5 nM
koff [3]: 0.00044 s⁻¹
kon [3]: 825000 M⁻¹ s⁻¹
B3: anti-IL-13 Fab variant CDR L3 R96A (Fab, V domains shown)
VH: B1 VH
VL: B1 VL with R100A
notes: as for B2

Kd [3]: 1.3 nM
koff [3]: 0.00111 s⁻¹
kon [3]: 882000 M⁻¹ s⁻¹
B4: anti-IL-13 Fab variant CDR H3 D95A (Fab, name in Kabat numbering, V domains shown)
VH: B1 VH with D98A
VL: B1 VL
notes: as for B2

B5: anti-IL-13 Fab variant CDR H3 D95A:P99A (Fab, name in Kabat numbering, V domains shown)
VH: B1 VH with D98A, P102A
VL: B1 VL
notes: as for B2
binding result [5]: no binding (tested: analyte up to 20 mM as printed)

fold loss in binding affinity against the parental anti-IL-13 Fab [4]: ~10 fold
Kd [3]: 0.7 nM
koff [3]: 0.00037 s⁻¹
kon [3]: 528000 M⁻¹ s⁻¹
B6: anti-IL-13 Fab variant CDR L3 D94A:R96A (Fab, V domains shown)
VH: B1 VH
VL: B1 VL with D98A, R100A
notes: Fab; variable domains only; Kabat numbering; also called D94: R96A double substitution

Kd [3]: 0.03 nM
koff [3]: 3e-05 s⁻¹
kon [3]: 1.03e+06 M⁻¹ s⁻¹
B7: anti-IL-13 Fab variant CDR L3 N92A (Fab, V domains shown)
VH: B1 VH
VL: B1 VL with N96A
notes: as for B2

Kd [3]: 0.02 nM
koff [3]: 3e-05 s⁻¹
kon [3]: 1.24e+06 M⁻¹ s⁻¹
B8: anti-IL-13 Fab variant CDR L3 D94A (Fab, V domains shown)
VH: B1 VH
VL: B1 VL with D98A
notes: as for B2

Kd [6]: < 0.05 nM
koff [6]: < 1e-05 s⁻¹
kon [6]: 179000 M⁻¹ s⁻¹
B9: Parental anti-MET Fab (onartuzumab / 5D5) (Fab, V domains shown)
VH: EVQLVESGGGLVQPGGSLRLSCAASGYTFTSYWLHWVRQAPGKGLEWVGMIDPSNSDTRFNPNFKDRFTISADTSKNTAYLQMNSLRAEDTAVYYCATYRSYVTPLDYWGQGTLVTVSS
VL: DIQMTQSPSSLSASVGDRVTITCKSSQSLLYTSSQKNYLAWYQQKPGKAPKLLIYWASTRESGVPSRFSGSGSGTDFTLTISSLQPEDFATYYCQQYYAYPWTFGQGTKVEIK
notes: Tested as Fab

Kd [6]: < 0.06 nM
koff [6]: < 1e-05 s⁻¹
kon [6]: 153000 M⁻¹ s⁻¹
B10: anti-MET Fab variant CDR L3 P95A (Fab, V domains shown)
VH: B9 VH
VL: B9 VL with P101A
notes: as for B2

Kd [6]: 5.7 nM
koff [6]: 0.00065 s⁻¹
kon [6]: 115000 M⁻¹ s⁻¹
B11: anti-MET Fab variant CDR L3 Y94A (Fab, V domains shown)
VH: B9 VH
VL: B9 VL with Y100A
notes: as for B2

Kd [6]: 2.1 nM
koff [6]: 0.00017 s⁻¹
kon [6]: 84000 M⁻¹ s⁻¹
B12: anti-MET Fab variant CDR L3 W96A (Fab, V domains shown)
VH: B9 VH
VL: B9 VL with W102A
notes: as for B2

binding result [7]: no binding (tested: analyte up to 75 nM)
B13: anti-MET Fab variant CDR L3 Y91A:Y94A (Fab, V domains shown)
VH: B9 VH
VL: B9 VL with Y97A, Y100A
notes: as for B2

Kd [6]: 0.8 nM
koff [6]: 6e-05 s⁻¹
kon [6]: 70000 M⁻¹ s⁻¹
B14: anti-MET Fab variant CDR L3 Y91A (Fab, V domains shown)
VH: B9 VH
VL: B9 VL with Y97A
notes: Fab; variable domains only

binding result [7]: no binding (tested: analyte up to 75 nM)
B15: anti-MET Fab variant CDR L3 Y91A:W96A (Fab, V domains shown)
VH: B9 VH
VL: B9 VL with Y97A, W102A
notes: as for B2

Kd [6]: 1.1 nM
koff [6]: 0.00019 s⁻¹
kon [6]: 172000 M⁻¹ s⁻¹
B16: anti-MET Fab variant CDR L3 Y92A (Fab, V domains shown)
VH: B9 VH
VL: B9 VL with Y98A
notes: as for B2

From US20220056134A1 (Genentech, published 2022)
